Data reported in US20050106660A1 (Pieris, published 2005).

Key:
[1] = target: T1, bovine serum albumin (BSA, Sigma) (bovine, UniProt P02769 25-607); assay: SPR (BIAcore X), BSA immobilized on CM5 chip, steady state
T1 construct: Immobilized by amine coupling on a CM5 chip (ca. 5000 RU)

[2] = target: T2, hemoglobin (Sigma); assay: not stated there (affinity measured by SPR in Example 5)
T2 construct: Immobilized by amine coupling on a CM5 chip (ca. 5000 RU)
Procedure: (§1) The binding affinity of the anticalin HbgA to hemoglobin was determined by surface plasmon resonance (SPR) using the BIAcore X system (BIACORE). Hemoglobin (100 μg/ml, dissolved in 10 mM maleate, pH 6.0) was immobilized at an amount of ca. 5000 resonance units (RU) to the surface of one flow channel on a CM5 sensor chip (BIACORE) using the amine coupling kit (BIACORE) according to the manufacturer's instructions. Unreacted groups on the biosensor chip surface were blocked with 1 M ethanolamine hydrochloride-NaOH pH 8.5. […] The concentration of HbgA and also of ApoD were determined by absorption at 280 nm using a calculated extinction coefficient of 54600 M⁻¹ cm⁻¹ and 34150 M⁻¹ cm⁻¹, respectively (Gill and von Hippel, Anal. Biochem. 182 (1989), 319-326). […] The binding of HbgA to hemoglobin, immobilized on the sensor chip, was measured by applying each 75 μl of these protein solutions. Steady state resonance values were detected for the channel with the immobilized hemoglobin for each concentration applied. For each measurement the resonance value that was due to buffer effects and simultaneously measured for the second channel of the sensor chip, was subtracted, and the resulting difference value was plotted against the applied concentration. […]

[3] = target: T2, hemoglobin (Sigma); assay: SPR (BIAcore X), hemoglobin immobilized on CM5 chip, steady-state values fitted
Procedure: as §1

T1 sequence (P02769 25-607 limits assumed): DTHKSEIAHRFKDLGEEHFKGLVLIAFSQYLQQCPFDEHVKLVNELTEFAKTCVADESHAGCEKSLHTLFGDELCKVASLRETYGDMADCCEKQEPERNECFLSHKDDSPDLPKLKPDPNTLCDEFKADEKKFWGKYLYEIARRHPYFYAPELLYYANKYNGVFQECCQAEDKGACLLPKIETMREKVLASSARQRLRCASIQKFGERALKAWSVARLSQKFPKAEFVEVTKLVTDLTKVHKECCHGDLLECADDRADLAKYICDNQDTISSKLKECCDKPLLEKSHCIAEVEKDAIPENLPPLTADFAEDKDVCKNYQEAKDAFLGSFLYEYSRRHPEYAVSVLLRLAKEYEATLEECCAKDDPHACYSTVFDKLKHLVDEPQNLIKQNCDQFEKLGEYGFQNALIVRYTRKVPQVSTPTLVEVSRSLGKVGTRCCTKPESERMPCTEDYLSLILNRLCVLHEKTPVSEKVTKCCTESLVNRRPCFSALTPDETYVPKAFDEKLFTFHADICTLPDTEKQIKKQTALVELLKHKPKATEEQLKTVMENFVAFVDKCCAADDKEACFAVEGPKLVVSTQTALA

B1: anticalin HbgA (mutein of human apolipoprotein D), purified, with C-terminal Strep-Tag II (designed binder)
chain: QAFHLGKCPNPPVQENFDVNKYPGRWYEIEKIPQFVWMGRCIQANYSLMENGKIKVLNQFLRITLDVWQIEGEATPVNLTEPAKLEVKEGLGDPSAPYWILATDYENYALVYSCESFLWLFHWDFAWILARNVALPPETVDSLKNILTSNNIDVKKMTVTDQVNCPKLS
notes: The amber codon at position 34 was replaced by a Gln codon; Scaffold carries Leu23Pro, Cys116Ser, Pro133Val, Asn134Ala; also called mutein HbgA; not shown: Strep-Tag II fused to the C-terminus (expression from pApoD10)
- binding result [1]: no binding
- Ka [2]: > 1e+06 M⁻¹
- Kd [3]: 2200 nM
